Test results taken from patent US20210340181A1.

T1: αvβ6 integrin on DX3puroβ6 (αvβ6+) cells (human), P06756
T1 chain 1: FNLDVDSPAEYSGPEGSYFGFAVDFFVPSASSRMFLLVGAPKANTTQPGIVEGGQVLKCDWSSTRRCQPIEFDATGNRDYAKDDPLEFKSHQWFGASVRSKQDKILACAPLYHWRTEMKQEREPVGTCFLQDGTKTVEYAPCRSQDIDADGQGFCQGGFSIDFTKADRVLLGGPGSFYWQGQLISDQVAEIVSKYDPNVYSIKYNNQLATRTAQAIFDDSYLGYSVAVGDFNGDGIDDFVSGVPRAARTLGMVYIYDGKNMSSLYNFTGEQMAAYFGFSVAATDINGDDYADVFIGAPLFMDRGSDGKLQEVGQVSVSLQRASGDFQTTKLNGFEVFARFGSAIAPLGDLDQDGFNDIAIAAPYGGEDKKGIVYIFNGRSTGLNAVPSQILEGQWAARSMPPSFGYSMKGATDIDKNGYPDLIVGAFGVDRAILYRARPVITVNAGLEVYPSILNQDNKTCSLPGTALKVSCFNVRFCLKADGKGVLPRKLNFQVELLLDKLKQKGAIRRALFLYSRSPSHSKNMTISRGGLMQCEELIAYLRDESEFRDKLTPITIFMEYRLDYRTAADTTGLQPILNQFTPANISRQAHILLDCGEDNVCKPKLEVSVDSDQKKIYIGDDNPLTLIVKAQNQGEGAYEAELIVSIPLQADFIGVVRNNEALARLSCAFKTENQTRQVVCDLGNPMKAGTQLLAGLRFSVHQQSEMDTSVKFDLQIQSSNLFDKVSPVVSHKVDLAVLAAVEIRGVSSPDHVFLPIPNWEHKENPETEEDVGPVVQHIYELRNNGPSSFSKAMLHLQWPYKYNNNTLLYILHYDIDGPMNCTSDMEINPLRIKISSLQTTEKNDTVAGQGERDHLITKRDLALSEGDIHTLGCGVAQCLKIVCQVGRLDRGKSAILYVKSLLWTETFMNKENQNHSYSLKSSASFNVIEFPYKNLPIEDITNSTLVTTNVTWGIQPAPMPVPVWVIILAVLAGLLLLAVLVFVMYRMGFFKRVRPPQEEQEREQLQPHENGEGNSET
T1 chain 2: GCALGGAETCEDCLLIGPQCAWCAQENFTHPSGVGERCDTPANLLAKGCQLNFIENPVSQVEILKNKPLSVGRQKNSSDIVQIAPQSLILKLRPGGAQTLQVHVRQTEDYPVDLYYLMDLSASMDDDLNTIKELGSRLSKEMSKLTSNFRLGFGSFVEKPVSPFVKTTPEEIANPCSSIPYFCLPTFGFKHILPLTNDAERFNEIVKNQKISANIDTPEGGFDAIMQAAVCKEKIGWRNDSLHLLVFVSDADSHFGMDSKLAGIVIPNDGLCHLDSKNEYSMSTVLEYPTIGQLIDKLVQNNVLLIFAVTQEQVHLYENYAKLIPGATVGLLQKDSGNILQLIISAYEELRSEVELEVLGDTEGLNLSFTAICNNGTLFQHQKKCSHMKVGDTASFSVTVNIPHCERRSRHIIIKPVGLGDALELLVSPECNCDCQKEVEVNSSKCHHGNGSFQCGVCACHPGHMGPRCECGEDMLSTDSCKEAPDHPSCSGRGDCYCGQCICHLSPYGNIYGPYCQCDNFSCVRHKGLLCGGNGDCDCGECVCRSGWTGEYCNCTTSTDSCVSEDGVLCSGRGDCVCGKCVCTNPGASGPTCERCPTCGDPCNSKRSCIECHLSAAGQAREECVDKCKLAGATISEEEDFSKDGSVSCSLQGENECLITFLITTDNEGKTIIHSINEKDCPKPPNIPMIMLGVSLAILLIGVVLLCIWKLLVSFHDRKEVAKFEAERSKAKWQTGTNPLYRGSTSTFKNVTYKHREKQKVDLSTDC

T2: αvβ6 integrin (purified), P06756
T2 chain 1: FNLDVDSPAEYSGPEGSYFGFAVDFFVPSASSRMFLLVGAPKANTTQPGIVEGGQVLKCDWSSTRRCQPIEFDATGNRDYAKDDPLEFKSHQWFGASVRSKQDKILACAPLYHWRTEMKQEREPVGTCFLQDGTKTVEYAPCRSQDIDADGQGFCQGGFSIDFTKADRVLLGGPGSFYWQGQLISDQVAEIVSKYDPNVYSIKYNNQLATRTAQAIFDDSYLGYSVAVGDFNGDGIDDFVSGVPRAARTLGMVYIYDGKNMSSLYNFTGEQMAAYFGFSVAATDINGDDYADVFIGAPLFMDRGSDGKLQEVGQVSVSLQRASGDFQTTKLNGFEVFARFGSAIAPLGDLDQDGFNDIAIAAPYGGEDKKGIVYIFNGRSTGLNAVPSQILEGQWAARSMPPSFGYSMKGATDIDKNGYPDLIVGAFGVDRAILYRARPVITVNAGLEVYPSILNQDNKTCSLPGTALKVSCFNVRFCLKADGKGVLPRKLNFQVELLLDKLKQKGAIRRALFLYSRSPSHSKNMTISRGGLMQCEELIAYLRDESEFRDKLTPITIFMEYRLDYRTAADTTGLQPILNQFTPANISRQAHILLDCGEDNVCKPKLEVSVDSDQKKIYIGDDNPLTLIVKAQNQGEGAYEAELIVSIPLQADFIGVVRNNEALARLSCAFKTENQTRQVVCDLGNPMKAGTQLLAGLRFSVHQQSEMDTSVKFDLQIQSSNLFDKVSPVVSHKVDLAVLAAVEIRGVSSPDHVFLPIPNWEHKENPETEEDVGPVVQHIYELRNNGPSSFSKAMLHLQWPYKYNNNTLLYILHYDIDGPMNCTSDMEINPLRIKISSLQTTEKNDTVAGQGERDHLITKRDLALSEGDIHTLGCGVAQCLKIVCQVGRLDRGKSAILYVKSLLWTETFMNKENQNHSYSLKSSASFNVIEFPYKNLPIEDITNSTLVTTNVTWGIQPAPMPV
T2 chain 2: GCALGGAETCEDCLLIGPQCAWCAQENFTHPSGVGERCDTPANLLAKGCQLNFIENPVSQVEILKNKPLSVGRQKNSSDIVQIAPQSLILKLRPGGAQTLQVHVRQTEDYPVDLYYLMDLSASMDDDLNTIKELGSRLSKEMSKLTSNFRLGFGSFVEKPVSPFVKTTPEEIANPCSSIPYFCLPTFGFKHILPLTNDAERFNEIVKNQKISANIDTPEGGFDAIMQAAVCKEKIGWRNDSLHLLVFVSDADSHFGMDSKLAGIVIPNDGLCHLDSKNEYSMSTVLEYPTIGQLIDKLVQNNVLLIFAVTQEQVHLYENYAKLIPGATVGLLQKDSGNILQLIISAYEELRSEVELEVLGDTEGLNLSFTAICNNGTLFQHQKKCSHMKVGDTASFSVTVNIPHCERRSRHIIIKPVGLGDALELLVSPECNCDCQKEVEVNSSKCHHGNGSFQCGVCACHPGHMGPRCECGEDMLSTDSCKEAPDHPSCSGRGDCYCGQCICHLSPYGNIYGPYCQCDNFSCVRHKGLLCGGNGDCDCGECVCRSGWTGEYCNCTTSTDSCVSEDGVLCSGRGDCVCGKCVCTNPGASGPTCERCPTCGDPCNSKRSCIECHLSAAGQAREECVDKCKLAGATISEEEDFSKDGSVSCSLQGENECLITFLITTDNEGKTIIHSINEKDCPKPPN

T3: αvβ8 integrin (purified), P06756
T3 chain 1: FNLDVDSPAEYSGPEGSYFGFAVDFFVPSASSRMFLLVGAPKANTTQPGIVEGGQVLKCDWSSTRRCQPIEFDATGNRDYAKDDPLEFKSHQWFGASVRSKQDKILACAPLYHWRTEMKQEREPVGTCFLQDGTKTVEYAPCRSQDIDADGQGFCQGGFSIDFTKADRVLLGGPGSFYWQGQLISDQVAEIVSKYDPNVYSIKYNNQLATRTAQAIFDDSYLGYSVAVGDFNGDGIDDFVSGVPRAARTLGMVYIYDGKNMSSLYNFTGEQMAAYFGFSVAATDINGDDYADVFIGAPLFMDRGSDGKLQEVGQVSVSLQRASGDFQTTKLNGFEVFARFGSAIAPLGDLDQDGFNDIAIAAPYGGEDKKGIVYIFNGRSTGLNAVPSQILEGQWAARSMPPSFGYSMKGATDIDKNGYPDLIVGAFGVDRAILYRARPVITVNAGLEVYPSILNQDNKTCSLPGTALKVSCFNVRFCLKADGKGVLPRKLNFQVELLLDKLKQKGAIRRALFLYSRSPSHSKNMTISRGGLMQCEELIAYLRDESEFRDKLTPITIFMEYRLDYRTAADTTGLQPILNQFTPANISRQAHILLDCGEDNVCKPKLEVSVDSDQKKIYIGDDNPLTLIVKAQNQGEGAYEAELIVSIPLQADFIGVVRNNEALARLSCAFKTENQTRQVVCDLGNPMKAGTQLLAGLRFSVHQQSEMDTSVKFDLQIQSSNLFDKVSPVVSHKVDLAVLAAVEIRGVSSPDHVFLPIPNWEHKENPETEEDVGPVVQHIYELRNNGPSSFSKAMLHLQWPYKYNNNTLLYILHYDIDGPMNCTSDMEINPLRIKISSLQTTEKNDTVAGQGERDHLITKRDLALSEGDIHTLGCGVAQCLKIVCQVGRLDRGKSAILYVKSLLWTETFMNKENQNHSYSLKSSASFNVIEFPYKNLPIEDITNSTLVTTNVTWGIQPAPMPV
T3 chain 2: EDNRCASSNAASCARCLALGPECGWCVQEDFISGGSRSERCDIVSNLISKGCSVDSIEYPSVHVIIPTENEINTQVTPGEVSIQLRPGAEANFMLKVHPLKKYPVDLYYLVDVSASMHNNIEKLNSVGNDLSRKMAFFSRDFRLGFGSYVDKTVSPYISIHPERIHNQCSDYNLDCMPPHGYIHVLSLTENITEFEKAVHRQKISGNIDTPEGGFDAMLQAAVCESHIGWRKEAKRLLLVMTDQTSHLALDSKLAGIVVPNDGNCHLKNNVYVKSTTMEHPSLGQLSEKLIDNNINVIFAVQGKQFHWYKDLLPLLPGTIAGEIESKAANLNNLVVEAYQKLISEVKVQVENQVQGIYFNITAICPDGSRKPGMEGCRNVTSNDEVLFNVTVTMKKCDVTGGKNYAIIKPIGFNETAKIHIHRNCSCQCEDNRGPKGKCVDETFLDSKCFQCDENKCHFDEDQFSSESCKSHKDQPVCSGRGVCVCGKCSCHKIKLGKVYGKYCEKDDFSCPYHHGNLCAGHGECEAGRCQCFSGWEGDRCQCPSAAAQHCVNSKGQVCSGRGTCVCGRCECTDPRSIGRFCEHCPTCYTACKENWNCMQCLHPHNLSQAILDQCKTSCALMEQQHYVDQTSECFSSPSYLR


Columns and labels:
[1] = biological target: T1, αvβ6 integrin on DX3puroβ6 (αvβ6+) …; assay: 18F peptide binding to DX3puroβ6 (αvβ6+) cells, 1 h, gamma counting
[2] = biological target: T2, αvβ6 integrin (purified), P06756; assay: competitive ELISA vs BtLAP
[3] = biological target: T3, αvβ8 integrin (purified), P06756; assay: competitive ELISA vs BtLAP
[4] = biological target: T1, αvβ6 integrin on DX3puroβ6 (αvβ6+) …; assay: 18F peptide cell binding, αvβ6+ over αvβ6- cells

Row | Binder | % binding to cells [1] [%] | IC50 [2] [µM] | IC50 [3] [µM] | DX3puroβ6 (αvβ6+)/DX3puro (αvβ6-) selectivity ratio [4]
1 | VGDLTYLKK (modifications not checked) [P1, …(FB)] | 12.8 | 0.45 | 5.3 | 1.1
2 | RGDLADLRK (modifications not checked) [P3, …(FB)] | 10.8 | 0.42 | 0.2 | 1.4
3 | RGDLQVLA (modifications not checked) [A20-8mer, FB-RGDLQVLA] |  |  |  | 7.8
4 | RTDLDSLRT (modifications not checked) [RTD-9mer, FB-…] |  | 0.022 |  | 1.7
5 | GRGDLGRL (modifications not checked) [SFLAP3-8mer, FB-GRGDLGRL] |  | 0.089 |  | 1.4
6 | RSDLTPLF (modifications not checked) [KL3, FB-RSDLTPLF] | 0.7 | 1.7 |  | 0.9
7 | RGDLQVLAQKVART (modifications not checked) [A20-14mer, FB-…] |  |  |  | 8.4
